The target of experiment [1] is T1, recombinant human NGF 1-120 (human, UniProt P01138 122-241). The experiment can be described thus: cell-based or functional assay.
Target sequence in this assay (P01138 other isoform, or with tags, fused parts or gaps): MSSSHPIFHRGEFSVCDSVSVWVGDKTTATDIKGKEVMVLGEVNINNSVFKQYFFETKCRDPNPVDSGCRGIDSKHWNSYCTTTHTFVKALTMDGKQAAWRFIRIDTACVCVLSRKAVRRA
The target of experiment [2] is recombinant rat beta-NGF (R&D Systems) (rat, UniProt P25427 122-241). Put plainly: cell-based or functional assay.
The target of experiment [3] is T1, recombinant human NGF 1-120. Put plainly: cell-based or functional assay. The source holds these as a separate data set.
Target sequence in this assay (P01138 other isoform, or with tags, fused parts or gaps, form in doubt): as the sequence (P01138 other isoform, or with tags, fused parts or gaps) above
Experiment [4] addresses T2, NGF Lys-C peptide K1 (37.6) SSSHPIFHRGEFSVCDSVSVWVGDK (human, Cysteine residues were reduced and carboxymethylated).
T2 construct: Calculated mass 2821; observed mass 2828.2
T2 peptide: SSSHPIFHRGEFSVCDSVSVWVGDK
Put plainly: Lys-C digest of NGF incubated with antibody, Microcon 100 separation, reversed phase HPLC.

Experiment [5] deals with T3, NGF Lys-C peptide K2 (39.5) QAAWRFIRIDTACVCVLSRK (human, Cysteine residues were reduced and carboxymethylated).
T3 construct: Calculated mass 2452; observed mass 2459.5
T3 peptide: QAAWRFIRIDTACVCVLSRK
The experiment is described as above.

The target in experiment [6] is T4, NGF subtilisin peptide S1 (4.4) SRKAVRR (113-119) (human).
T4 peptide: SRKAVRR
Put plainly: subtilisin-digested NGF incubated with antibody, Microcon 10 separation, HPLC of bound and unbound fractions.

Experiment [7] concerns the target T5, NGF subtilisin peptide S2 (28.3) EVMVL (35-39) (human).
T5 peptide: EVMVL
The description is as above.

Experiment [8] concerns the target T1, recombinant human NGF 1-120. The experiment can be described thus: KinExA; 10 pM and 30 pM Ab 4D4 equilibrated with huNGF in solution for 8 h, free antibody captured on huNGF-coated beads, dual-curve one-site fit. (Kinetic exclusion samples the free partner from a solution-phase mixture.)
Target sequence in this assay (P01138 other isoform, or with tags, fused parts or gaps, form in doubt): as the sequence (P01138 other isoform, or with tags, fused parts or gaps) above
The target is the same in experiment [9]. The experiment can be described thus: cell-based or functional assay. This is another data set of the same source.
Target sequence in this assay (P01138 other isoform, or with tags, fused parts or gaps, form in doubt): as the sequence (P01138 other isoform, or with tags, fused parts or gaps) above
The target of experiment [10] is T6, synthetic hNGF peptide 33582-27-10 NSVFKQYFFETKARDC (46-60) (human, C-terminal cysteine tail, conjugated to a maleimide activated plate).
T6 construct: also called Peptide # 10; peptide #10
T6 peptide: NSVFKQYFFETKARDC
Put plainly: peptide ELISA, Ab binding signal; peptide #10, L2, 46-60. (In general: An ELISA detects its analyte on a solid surface through an enzyme-linked reagent.)

Experiment [11] concerns the target T7, synthetic hNGF peptide 33582-27-17 TTTHTFVKALTMDGKC (81-95) (human, C-terminal cysteine tail, conjugated to a maleimide activated plate).
T7 construct: also called Peptide # 17; peptide #17
T7 peptide: TTTHTFVKALTMDGKC
The experiment can be described thus: peptide ELISA, Ab binding signal; peptide #17, L4, 81-95.

Experiment [12] addresses T8, synthetic hNGF peptide 33582-27-01 SSSHPIFHRGEFSVC (1-15) (human, conjugated through cysteine to a maleimide activated plate).
T8 construct: also called Peptide # 1; peptide #1
T8 peptide: SSSHPIFHRGEFSVC
Put plainly: peptide ELISA, Ab binding signal; peptide #1, N-terminus, 1-15.

Experiment [13] addresses T9, synthetic hNGF peptide 33582-27-16 WNSYATTTHTFVKALC (76-90) (human, C-terminal cysteine tail, conjugated to a maleimide activated plate).
T9 construct: also called Peptide # 16; peptide #16
T9 peptide: WNSYATTTHTFVKALC
The experiment can be described thus: peptide ELISA, Ab binding signal; peptide #16, internal, 76-90.

Experiment [14] concerns the target T10, synthetic hNGF peptide 33582-27-19 TMDGKQAAWRFIRIDC (91-105) (human, C-terminal cysteine tail, conjugated to a maleimide activated plate).
T10 construct: also called Peptide # 19; peptide #19
T10 peptide: TMDGKQAAWRFIRIDC
Put plainly: peptide ELISA, Ab binding signal; peptide #19, internal, 91-105.

Experiment [15] addresses T11, synthetic hNGF peptide 33582-27-20 QAAWRFIRIDTAAVC (96-110) (human, conjugated through cysteine to a maleimide activated plate).
T11 construct: also called Peptide # 20
T11 peptide: QAAWRFIRIDTAAVC
Put plainly: peptide ELISA, Ab binding signal; peptides # 20-21, C-terminus, 96-115.

Experiment [16] deals with T12, synthetic hNGF peptide 33582-27-21 FIRIDTAAVAVLSRKC (101-115) (human, C-terminal cysteine tail, conjugated to a maleimide activated plate).
T12 construct: also called Peptide # 21
T12 peptide: FIRIDTAAVAVLSRKC
The experiment is described as above.

The target in experiment [17] is T13, synthetic hNGF peptide 33582-27-18 FVKALTMDGKQAAWRC (86-100) (human, C-terminal cysteine tail, conjugated to a maleimide activated plate).
T13 construct: also called Peptide # 18
T13 peptide: FVKALTMDGKQAAWRC
Put plainly: ELISA, peptide conjugated to maleimide plate, 4D4.IgG1 at 0, 3, 10, 30 ug/ml, anti-hFc-HRP.

Chain of recombinant rat beta-NGF (R&D Systems) (P25427 122-241 limits assumed): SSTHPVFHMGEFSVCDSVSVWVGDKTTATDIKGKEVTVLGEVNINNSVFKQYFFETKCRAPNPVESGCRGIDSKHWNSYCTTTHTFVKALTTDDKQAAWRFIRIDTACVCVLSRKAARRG

B1: anti-NGF antibody 14D10 (antibody, V domains shown)
VH: EVQLVESGGGLVQPGRSLRLSCTASGFTFEDYAMHWVRQAPGKGLEWVSGISWNRGIIGYADSVKGRFTVSRDNAKNSLYLQMNSLRAEDTALYYCAKEGYYGSGRPGYFYYVMDVWGQGTTVTVSS
VL: EIVLTQSPGTLSLSPGERATLSCRASQSVSSGFLAWFQQKPGQAPRLLIYGASSRATAIPDRFSGSGSGTDFTLTISRLEPEDFAVYYCQQYGSSPYTFGQGTKLEIK
In the case of B1, the IC50 @ hNGF (nM), DRG neuron NGF neutralization assay; clone 14D10 in experiment [1] was determined as 0.392 nM. Also, the IC50 @ rNGF (nM), DRG neuron NGF neutralization assay; clone 14D10 in [2] is over 13 nM.

B2: anti-NGF monoclonal antibody 4D4 (antibody, V domains shown)
VH: EVQLVESGGGLVQPGGSLRLSCAASGFTLRSYSMNWVRQAPGKGLEWVSYISRSSHTIFYADSVKGRFTISRDNAKNSLYLQMDSLRDEDTAMYYCARVYSSGWHVSDYFDYWGQGILVTVSS
VL: AIQLTQSPSSLSASVGDRVTITCRASQGISSALAWYQQKPGKAPKLLIYDASSLESGVPSRFSGSGSGTDFTLTISSLQPEDFATYYCQQFNSYPLTFGGGTKVEIK
notes: also called 4D4.D7; #124 (parent)
A word on the Kd: it is the concentration at which binding is half-saturated. For the molecule B2, in experiment [3], the “IC50, inhibition of NGF-induced VR1 expression in rat DRG neurons; sample 119 (from 124)” value was under 1200 pM; the “IC50, inhibition of NGF-induced VR1 expression in rat DRG neurons; sample 124 (parent)” value is under 570 pM; the “IC50, inhibition of NGF-induced VR1 expression in rat DRG neurons; sample 125 (from 124)” value was under 300 pM; the “IC50, inhibition of NGF-induced VR1 expression in rat DRG neurons; sample 167 (from same sample as 124)” value is 500 pM. Moreover, the binding result in experiment [4] is given as “binds”. Moreover, the binding result in experiment [5] was “binds”. In addition, the binding result in [6] is “binds”. For the same molecule, the binding result in experiment [7] is given as “binds”. Moreover, the Kd in experiment [8] is about 4 pM.

B3: 4D4.IgG1 (recombinant anti-NGF 4D4 antibody with IgG1 heavy chain constant region) (antibody, V domains shown)
VH: EVQLVESGGGLVQPGGSLRLSCAASGFTLRSYSMNWVRQAPGKGLEWVSYISRSSHTIFYADSVKGRFTISRDNAKNSLYLQMDSLRDEDTAMYYCARVYSSGWHVSDYFDYWGQGILVTVSS
VL: AIQLTQSPSSLSASVGDRVTITCRASQGISSALAWYQQKPGKAPKLLIYDASSLESGVPSRFSGSGSGTDFTLTISSLQPEDFATYYCQQFNSYPLTFGGGTKVEIKR
notes: also called 4D4.IgG1.S; human anti-hNGF Ab 4D4.IgG1
Regarding B3, in experiment [9], the “IC50 @ hNGF (nM), DRG neuron based NGF neutralization bioassay; 4D4.IgG1.R” value amounted to 0.149 nM. The “IC50 @ hNGF (nM), DRG neuron based NGF neutralization bioassay; 4D4.IgG1.S” value in experiment [9] was 0.159 nM. The “IC50 @ rNGF (nM), DRG neuron based NGF neutralization bioassay; 4D4.IgG1.R” value in [2] is over 34 nM. Further, the “IC50 @ rNGF (nM), DRG neuron based NGF neutralization bioassay; 4D4.IgG1.S” value in [2] was over 45 nM. The binding result in [10], in [11], in [12], in experiment [13], in [14] and in [15] was “binds” throughout. The binding result in experiment [16] and in experiment [17] was “binds” throughout.

B4: anti-NGF antibody 14D11 (antibody, V domains shown)
VH: EVQLVQSGAEVKKPGESLKISCKGSGYNFTTYWIGWVRQMPGKGLEWMGIIYPGDSDTKYSPSFQGQVTISADKSISTAYLQWSSLKASDTAMYYCARNYYGSGTYYYYYGMNVWGQGTTVTVSS
VL: DIQMTQSPSSVSASVGDRVTITCRASQGISIWLAWYQHKPGKAPKLLIYAASSLQSGVPSRFSGSGSGTDFTLTISSLQPEDFATYYCQQANSFPWTFGQGTKVEIK
B4: the IC50 @ hNGF (nM), DRG neuron NGF neutralization assay; clone 14D11 in experiment [1] was found to be 0.28 nM. In addition, in experiment [2], the IC50 @ rNGF (nM), DRG neuron NGF neutralization assay; clone 14D11 was over 20 nM.

Source of the values: patent US20050074821A1 (Amgen, published 2005).
